The values that follow come from PMC7781312.

For the experiment, the target named is prefusion-stabilized MERS-CoV S ectodomain trimer (MERS-CoV 2P S) (MERS-CoV) (UniProt K9N5Q8). Kind of experiment: cryo-EM structure.

prefusion-stabilized MERS-CoV S ectodomain trimer (MERS-CoV 2P S), sequence (K9N5Q8 18-1296): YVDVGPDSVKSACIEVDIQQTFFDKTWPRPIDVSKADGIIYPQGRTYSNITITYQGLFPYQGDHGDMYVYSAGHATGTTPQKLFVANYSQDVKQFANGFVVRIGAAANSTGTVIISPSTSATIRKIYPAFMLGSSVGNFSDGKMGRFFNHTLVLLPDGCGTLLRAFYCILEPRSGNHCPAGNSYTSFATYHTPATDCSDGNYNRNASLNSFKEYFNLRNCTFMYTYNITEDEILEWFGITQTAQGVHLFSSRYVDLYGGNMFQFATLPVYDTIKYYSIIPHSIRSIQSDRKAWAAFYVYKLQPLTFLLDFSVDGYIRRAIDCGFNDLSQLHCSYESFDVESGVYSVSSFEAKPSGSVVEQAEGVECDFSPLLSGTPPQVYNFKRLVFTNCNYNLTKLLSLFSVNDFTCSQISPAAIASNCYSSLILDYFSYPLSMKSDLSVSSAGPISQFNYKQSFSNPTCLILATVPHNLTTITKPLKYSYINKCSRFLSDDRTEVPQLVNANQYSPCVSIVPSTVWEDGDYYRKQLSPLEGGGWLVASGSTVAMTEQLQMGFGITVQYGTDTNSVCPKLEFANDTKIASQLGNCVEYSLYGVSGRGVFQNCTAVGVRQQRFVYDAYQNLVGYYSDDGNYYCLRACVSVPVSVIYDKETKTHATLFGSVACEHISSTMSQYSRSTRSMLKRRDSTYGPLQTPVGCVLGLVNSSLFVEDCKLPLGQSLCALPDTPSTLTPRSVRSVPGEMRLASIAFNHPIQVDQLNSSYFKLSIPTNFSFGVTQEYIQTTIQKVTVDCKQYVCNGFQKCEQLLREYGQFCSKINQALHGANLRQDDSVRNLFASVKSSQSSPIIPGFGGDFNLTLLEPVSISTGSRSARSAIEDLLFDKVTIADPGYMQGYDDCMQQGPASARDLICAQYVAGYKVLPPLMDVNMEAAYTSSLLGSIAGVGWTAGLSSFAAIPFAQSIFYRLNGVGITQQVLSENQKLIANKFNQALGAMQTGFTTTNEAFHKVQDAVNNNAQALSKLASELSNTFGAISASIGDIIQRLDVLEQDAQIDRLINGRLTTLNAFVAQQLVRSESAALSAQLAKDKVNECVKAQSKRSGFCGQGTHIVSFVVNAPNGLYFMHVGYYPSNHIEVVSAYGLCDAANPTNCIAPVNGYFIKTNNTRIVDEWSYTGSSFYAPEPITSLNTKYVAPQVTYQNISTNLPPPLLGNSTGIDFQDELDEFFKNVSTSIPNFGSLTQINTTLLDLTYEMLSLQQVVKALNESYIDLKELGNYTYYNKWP

What is called stoichiometry N is the number of molecules, sites or subunits per partner or assembly. Substance “prefusion-stabilized MERS-CoV S ectodomain trimer (MERS-CoV 2P S) (from UniProt K9N5Q8 18-1296) (domain or fragment)” registered a stoichiometry N of 3.
